Source: US20130089560A1

Molecular target: human BMPR1A, endogenous on human Saos2 cells (human) (UniProt P36894)
Assay: cell-based or functional assay

UniProt P36894, sequence (P36894 24-532 limits assumed): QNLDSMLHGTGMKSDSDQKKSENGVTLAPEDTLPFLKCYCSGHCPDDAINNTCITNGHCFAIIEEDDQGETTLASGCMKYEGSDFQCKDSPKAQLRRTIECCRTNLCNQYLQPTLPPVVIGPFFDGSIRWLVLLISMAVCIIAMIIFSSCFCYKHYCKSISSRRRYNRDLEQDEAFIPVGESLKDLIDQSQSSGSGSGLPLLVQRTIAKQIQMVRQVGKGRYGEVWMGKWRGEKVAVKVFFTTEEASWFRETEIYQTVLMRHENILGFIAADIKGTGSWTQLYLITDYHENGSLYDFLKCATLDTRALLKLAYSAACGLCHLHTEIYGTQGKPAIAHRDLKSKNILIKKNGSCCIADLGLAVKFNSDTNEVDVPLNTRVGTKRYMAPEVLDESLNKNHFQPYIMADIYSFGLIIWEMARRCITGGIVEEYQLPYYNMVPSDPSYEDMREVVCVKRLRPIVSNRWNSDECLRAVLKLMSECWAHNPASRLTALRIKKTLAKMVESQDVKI

B1: anti-BMPR1A antibody 5M107 (antibody, part only; not given: light chain and constant regions, V domains shown, part only)
VH: EVQLQQSGPELVKPGTSVKISCKASGYSFTGYYMHWVKQSQVKSLEWIGRINPDNGGRTYNQIFKDKASLTVHKSSSTAYMELHSLTSDDSAVYYCTRERGQYGNYGGFSDWGQGTLVT
With B1 the Sp7 gene expression levels in Saos2 cells (qPCR, relative to control antibody) was 2.4 fold.
